Legend:
[1] = biological target: T1, alpha-fetoprotein (AFP) (Homo sapiens) (UniProt P02771); test: magnetic bead binding assay, antiF-POD, chronoamperometry; details: no amplification; 1:1 fit; 1x PBS, 25 °C, 30 min, 1300 rpm; 60 µg AFP-modified magnetic beads in 250 µL (effective AFP about 34 nM); washes 1x PBS 0.01% Tween 20; pH not stated
T1 sequence: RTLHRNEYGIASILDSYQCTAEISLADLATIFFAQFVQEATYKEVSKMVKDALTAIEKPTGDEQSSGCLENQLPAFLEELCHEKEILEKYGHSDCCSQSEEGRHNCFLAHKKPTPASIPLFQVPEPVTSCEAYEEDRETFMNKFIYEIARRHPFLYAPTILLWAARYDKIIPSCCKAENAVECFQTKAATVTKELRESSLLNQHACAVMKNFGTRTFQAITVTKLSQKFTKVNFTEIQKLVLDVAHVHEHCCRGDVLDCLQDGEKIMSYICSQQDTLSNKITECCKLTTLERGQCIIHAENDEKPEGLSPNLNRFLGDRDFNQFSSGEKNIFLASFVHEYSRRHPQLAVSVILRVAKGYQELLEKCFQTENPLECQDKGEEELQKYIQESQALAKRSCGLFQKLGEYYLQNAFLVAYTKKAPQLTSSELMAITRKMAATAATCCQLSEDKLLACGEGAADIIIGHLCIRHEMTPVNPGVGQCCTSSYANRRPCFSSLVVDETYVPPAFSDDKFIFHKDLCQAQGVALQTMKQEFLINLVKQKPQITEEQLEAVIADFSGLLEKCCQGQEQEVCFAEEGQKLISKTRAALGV

alpha-fetoprotein (AFP) [2] = biological target: T2, alpha-fetoprotein (AFP) (Homo sapiens, UniProt P02771 19-609); test: magnetic bead binding assay, RCA amplification, antiF-POD, chronoamperometry; apparent Kd; RCA after binding; Langmuir fit (abstract prints 189 nM); 1x PBS, 25 °C, 30 min, 1300 rpm; 60 µg AFP-modified magnetic beads in 250 µL (effective AFP about 34 nM); washes 1x PBS 0.01% Tween 20; pH not stated; details: protein: native
T2 sequence: T1 sequence

alpha-fetoprotein (AFP) [3] = biological target: T2, alpha-fetoprotein (AFP); test: magnetic bead binding assay, antiF-POD, chronoamperometry; no amplification; Hill n = 1.6 ± 0.4; 1x PBS, 25 °C, 30 min, 1300 rpm; 60 µg AFP-modified magnetic beads in 250 µL (effective AFP about 34 nM); washes 1x PBS 0.01% Tween 20; pH not stated; details: protein: native; label: 5' FITC
alpha-fetoprotein (AFP) [4] = biological target: T2, alpha-fetoprotein (AFP); test: magnetic bead binding assay, TdT amplification, SA-POD, chronoamperometry; apparent Kd; TdT elongation after binding; Langmuir fit; 1x PBS, 25 °C, 30 min, 1300 rpm; 60 µg AFP-modified magnetic beads in 250 µL (effective AFP about 34 nM); washes 1x PBS 0.01% Tween 20; pH not stated; details: protein: native

## TCAGGTGCAGTTCTCGACTCGGTCTTGATGTGGGT [AFP-S-FITC]
[1]
  Kd: 0.713 µM

B1: AFP-S-RCA (ssDNA)
DNA: TCAGGTGCAGTTCTCGACTCGGTCTTGATGTGGGTTTTTTTTTTTAGATAGTAAGTGCAATCT
alpha-fetoprotein (AFP) [2]
  Kd: 0.188 ± 0.033 µM

B2: AFP-L-FITC (ssDNA)
DNA: GGCAGGAAGACAAACAAGCTTGGCGGCGGGAAGGTGTTTAAATTCCCGGGTCTGCGTGGTCTGTGGTGCTGT
alpha-fetoprotein (AFP) [3]
  Kd: 0.526 ± 0.101 µM

B3: AFP-L-TdT (ssDNA)
DNA: GGCAGGAAGACAAACAAGCTTGGCGGCGGGAAGGTGTTTAAATTCCCGGGTCTGCGTGGTCTGTGGTGCTGTTTTTTT
alpha-fetoprotein (AFP) [4]
  Kd: 0.032 ± 0.011 µM
